Source: patent US4016042A, “Substrate for the quantitative determination of enzymes” (Pentapharm A.G., priority 1974, dated 1977)

Test system: N=C(N)NCCC[C@H](NC(=O)[C@H](Cc1ccccc1)NC(=O)[C@@H]1CCCN1C(=O)c1ccccc1)C(=O)Nc1ccc([N+](=O)[O-])cc1
Experiment: Km and vmax determination with substrate (Lineweaver-Burk), plasma kallikrein
Assay type: biochemical
Details: other: plasma kallikrein; substrate concentration varied, enzyme constant; measured at 405 nm
Experimental: As is evident from equation (2) constants Km and k3 determine the activity of the enzyme substrate for a given enzyme. For determining these constants the following procedure is followed:
The enzyme and the substrate are mixed in a buffer solution, and the reaction is followed spectrophotometrically for 2 to 30 minutes. The concentration of substrate [S] is varied, whereas the enzyme concentration [E] is kept constant. If the extinction (OD) (= optical density) is plotted in a co-ordinate system as a function of time, a curve is obtained the tangent of which (difference in extinction per minute, Δ OD/minute, from which the quantity in μmoles of pNA/min (v) can be calculated) at time zero corresponds to the ideal course of the hydrolysis. By means of this tangent the initial rate of the hydrolysis can be determined.
If 1/v is plotted against 1/[S], a Lineweaver-Burk diagram (cf. "Kurzes Lehrbuch der Biochemie" by P. KARSON, Georg Thieme-Verlag, Stuttgart, 1967, p. 70) is obtained from which vmax and Km can be determined graphically.
Km and k3 = vmax /E were determined with N^α-Bz-Pro-Phe-Arg-pNA^. HCl (i.e. the substrate prepared according to Example 1) for plasma kallikrein, trypsin, plasmin and thrombin.

Chain of plasma kallikrein (Homo sapiens) (chain, as listed by the source): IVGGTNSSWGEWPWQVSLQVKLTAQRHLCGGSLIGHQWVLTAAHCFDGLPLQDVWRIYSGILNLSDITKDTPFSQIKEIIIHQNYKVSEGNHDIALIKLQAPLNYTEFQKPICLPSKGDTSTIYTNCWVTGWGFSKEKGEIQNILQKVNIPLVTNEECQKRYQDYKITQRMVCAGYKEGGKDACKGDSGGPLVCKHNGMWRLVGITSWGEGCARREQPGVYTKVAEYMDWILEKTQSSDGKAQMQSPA

Substance: plasma kallikrein (Homo sapiens)
- Km: 282 µM
